Results from patent US20140087995A1 (published 2014).
Residue numbers refer to the chain shown, from its start. Blank lines part the entries; values can stand above or below the binder they belong to. Numbered stars: 1 amine (or outer) side, 2 acyl side, 3 side chain; on linkers, the order of the positions; unused ones are H or OH. Bridge positions count the residues as written; N and C are the ends. Side chains are listed from the residue outwards. Ends that are not written are not given here. * marks the point of attachment. C20 diacid = O=C(O)CCCCCCCCCCCCCCCCCCC(=O)*; γGlu = O=C(O)[C@H](CCC(=O)[*:2])N[*:1]

Assays:
[1] = target: T1, human calcitonin receptor (human, UniProt P30988 25-474); test: SPA competition against 125I-calcitonin, membranes with human calcitonin receptor (Assay VII)
T1 construct: whole, on cells; Used as cell membranes prepared from the transfected BHK cells (Assay VII), not as intact cells; also called hCTR; hCT
T1 sequence (looked up): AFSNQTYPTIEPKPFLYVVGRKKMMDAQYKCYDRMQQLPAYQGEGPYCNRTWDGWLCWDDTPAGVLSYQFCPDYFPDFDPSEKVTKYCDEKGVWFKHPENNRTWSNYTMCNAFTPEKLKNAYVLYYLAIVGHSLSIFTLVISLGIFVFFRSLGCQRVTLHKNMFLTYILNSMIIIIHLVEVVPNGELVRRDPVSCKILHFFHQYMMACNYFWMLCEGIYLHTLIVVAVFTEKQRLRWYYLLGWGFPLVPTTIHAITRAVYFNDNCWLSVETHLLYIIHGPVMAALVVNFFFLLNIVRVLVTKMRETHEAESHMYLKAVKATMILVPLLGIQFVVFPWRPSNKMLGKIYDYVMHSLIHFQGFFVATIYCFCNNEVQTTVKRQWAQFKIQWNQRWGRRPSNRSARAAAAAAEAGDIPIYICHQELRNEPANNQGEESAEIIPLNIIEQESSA
Procedure: Membranes were prepared in the following way; the cells were rinsed with PBS and incubated with Versene for approximately 5 min before harvesting. The cells were flushed with PBS and the cell-suspension was centrifuged for 5 min at 1000 rpm. Cells were homogenized (Ultrathurrax) in a buffer containing 20 mM Na-HEPES and 10 mM EDTA (pH 7.4) and centrifuged at 20.000 rpm for 15 min. The resulting pellet was resuspended, homogenized and centrifuged (20.000 rpm, 15 min) in a buffer containing 20 mM Na-HEPES and 0.1 mM EDTA (pH 7.4, buffer 2). The resulting pellet was resuspended in buffer 2 and protein concentration was measured (BCA protein Assay, Pierce). The homogenate was kept cold during the whole procedure. The membranes were kept at −80° C. until use. Assay was performed in a 384 well Optiplate (PerkinElmer) in a total volume of 40 ul. Membranes were mixed with SPA beads. Final concentration of membranes 35 ng/μL final and Final concentration of SPA beads was 0.05 mg/well. Test-compounds were dissolved in DMSO and further diluted in assay buffer (50 mM Hepes, pH 7.4, 1 mM CaCl2, 5 mM MgCl₂, 0.1% OA and 0.02% Tween20). […] The final mixture was incubated for 120 min with shaking at 400 rpm at 25° C. prior to centrifugation (1500 rpm, 10 min). Samples were analyzed on TopCounter™ (Packard). The […] was calculated using (one site binding competition analysis) GraphPad Prism5 as a measure of receptor affinity.

[2] = target: T2, human calcitonin receptor (human, UniProt P30988 25-474); test: SPA radioligand competition (125I-calcitonin), membranes of BHK cells with human calcitonin receptor
T2 construct: whole, on cells; Assay used cell membranes of the transfected BHK cells; also called hCTR; hCT
T2 sequence (looked up): T1 sequence (looked up)
In short: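 BHK hCTR membranes 35 ng/μL + SPA beads 0.05 mg/well; buffer 50 mM Hepes pH 7.4, 1 mM CaCl2, 5 mM MgCl₂, 0.1% OA, 0.02% Tween20. 120 min, 25° C., shaking. Scintillation count; IC50 by one-site binding competition.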

B3: N^α1-[(4S)-4-carboxy-4-(19-carboxynonadecanoylamino)butanoyl]-[Arg17,Pro21,Pro27,His34]-h-amylin (peptide)
peptide: KCNTATCATQRLANFLRHSSPNFGAIPSSTNVGHNTY
modifications: C20 diacid-gGlu on the alpha amino group of the N-terminal Lys1; disulfide Cys2-Cys7; C-terminal amide
notes: also called compound 40
IC50 [1]: 17.1 nM

B4: N^α1-[(4S)-4-carboxy-4-(19-carboxynonadecanoylamino)butanoyl]-[Arg17,Pro21,Pro27,Arg34]-h-amylin (peptide)
peptide: B3 peptide with H34R
modifications: C20 diacid-gGlu on the alpha amino group of the N-terminal Lys1; disulfide Cys2-Cys7; C-terminal amide
notes: also called compound 39
IC50 [1]: 19.3 nM

B5: N^α1-[2-[2-[2-[[2-[2-[2-[[(4S)-4-carboxy-4-(19-carboxynonadecanoylamino)butanoyl]amino]ethoxy]ethoxy]acetyl]amino]ethoxy]ethoxy]acetyl]-[Glu14,Arg17,Pro21,Pro27 … (peptide)
peptide: B3 peptide with N14E, H34S
modifications: C20 diacid-gGlu-2xOEG on the alpha amino group of the N-terminal Lys1; disulfide Cys2-Cys7; C-terminal amide
notes: also called compound 19
IC50 [1]: 20.4 nM

B6: N^α1-[(4S)-4-carboxy-4-(19-carboxynonadecanoylamino)butanoyl]-[Arg17,Pro21,Pro27,Lys35]-h-amylin (peptide)
peptide: B3 peptide with H34S, N35K
modifications: C20 diacid-gGlu on the alpha amino group of the N-terminal Lys1; disulfide Cys2-Cys7; C-terminal amide
notes: also called compound 34
IC50 [1]: 73.4 nM

B7: N^α1-[(4S)-4-carboxy-4-(19-carboxynonadecanoylamino)butanoyl]-[Arg17,Pro21,Pro27,Glu35]-h-amylin (peptide)
peptide: B3 peptide with H34S, N35E
modifications: C20 diacid-gGlu on the alpha amino group of the N-terminal Lys1; disulfide Cys2-Cys7; C-terminal amide
notes: also called compound 23
IC50 [1]: 21.8 nM

More lines, now with the values ahead:

IC50 [1]: 15.5 nM
B1: N^α1 N^α1-[(4S)-4-carboxy-4-[[(4S)-4-carboxy-4-(19-carboxynonadecanoylamino)butanoyl]amino]butanoyl]-[Glu14,Arg17,Pro21,Pro27]-h-amylin (peptide)
peptide: {C20 diacid-γGlu-γGlu}-KCNTATCATQRLAEFLRHSSPNFGAIPSSTNVGSNTY-NH2
modifications: disulfide 2-7
SMILES: CC[C@H](C)[C@H](NC(=O)[C@H](C)NC(=O)CNC(=O)[C@H](Cc1ccccc1)NC(=O)[C@H](CC(N)=O)NC(=O)[C@@H]1CCCN1C(=O)[C@H](CO)NC(=O)[C@H](CO)NC(=O)[C@H](Cc1c[nH]cn1)NC(=O)[C@H](CCCNC(=N)N)NC(=O)[C@H](CC(C)C)NC(=O)[C@H](Cc1ccccc1)NC(=O)[C@H](CCC(=O)O)NC(=O)[C@H](C)NC(=O)[C@H](CC(C)C)NC(=O)[C@H](CCCNC(=N)N)NC(=O)[C@H](CCC(N)=O)NC(=O)[C@@H](NC(=O)[C@H](C)NC(=O)[C@@H]1CSSC[C@H](NC(=O)[C@H](CCCCN)NC(=O)CC[C@H](NC(=O)CC[C@H](NC(=O)CCCCCCCCCCCCCCCCCCC(=O)O)C(=O)O)C(=O)O)C(=O)N[C@@H](CC(N)=O)C(=O)N[C@@H]([C@@H](C)O)C(=O)N[C@@H](C)C(=O)N[C@@H]([C@@H](C)O)C(=O)N1)[C@@H](C)O)C(=O)N1CCC[C@H]1C(=O)N[C@@H](CO)C(=O)N[C@@H](CO)C(=O)N[C@H](C(=O)N[C@@H](CC(N)=O)C(=O)N[C@H](C(=O)NCC(=O)N[C@@H](CO)C(=O)N[C@@H](CC(N)=O)C(=O)N[C@H](C(=O)N[C@@H](Cc1ccc(O)cc1)C(N)=O)[C@@H](C)O)C(C)C)[C@@H](C)O
notes: also called compound 15

IC50 [1]: 12.5 nM
B2: N^α1-[(4S)-4-carboxy-4-(19-carboxynonadecanoylamino)butanoyl]-[Arg17,Pro21,Pro27,Pro31,Glu35]-h-amylin (peptide)
peptide: {C20 diacid-γGlu}-KCNTATCATQRLANFLRHSSPNFGAIPSSTPVGSETY-NH2
modifications: disulfide 2-7
SMILES: CC[C@H](C)[C@H](NC(=O)[C@H](C)NC(=O)CNC(=O)[C@H](Cc1ccccc1)NC(=O)[C@H](CC(N)=O)NC(=O)[C@@H]1CCCN1C(=O)[C@H](CO)NC(=O)[C@H](CO)NC(=O)[C@H](Cc1c[nH]cn1)NC(=O)[C@H](CCCNC(=N)N)NC(=O)[C@H](CC(C)C)NC(=O)[C@H](Cc1ccccc1)NC(=O)[C@H](CC(N)=O)NC(=O)[C@H](C)NC(=O)[C@H](CC(C)C)NC(=O)[C@H](CCCNC(=N)N)NC(=O)[C@H](CCC(N)=O)NC(=O)[C@@H](NC(=O)[C@H](C)NC(=O)[C@@H]1CSSC[C@H](NC(=O)[C@H](CCCCN)NC(=O)CC[C@H](NC(=O)CCCCCCCCCCCCCCCCCCC(=O)O)C(=O)O)C(=O)N[C@@H](CC(N)=O)C(=O)N[C@@H]([C@@H](C)O)C(=O)N[C@@H](C)C(=O)N[C@@H]([C@@H](C)O)C(=O)N1)[C@@H](C)O)C(=O)N1CCC[C@H]1C(=O)N[C@@H](CO)C(=O)N[C@@H](CO)C(=O)N[C@H](C(=O)N1CCC[C@H]1C(=O)N[C@H](C(=O)NCC(=O)N[C@@H](CO)C(=O)N[C@@H](CCC(=O)O)C(=O)N[C@H](C(=O)N[C@@H](Cc1ccc(O)cc1)C(N)=O)[C@@H](C)O)C(C)C)[C@@H](C)O
notes: also called compound 28

IC50 [1]: 11.1 nM
B8: N^α1-[(4S)-4-carboxy-4-(19-carboxynonadecanoylamino)butanoyl]-[Glu14,Arg17,Pro21,Pro26]-h-amylin (peptide)
peptide: {C20 diacid-γGlu}-KCNTATCATQRLAEFLRHSSPNFGAPLSSTNVGSNTY-NH2
modifications: disulfide 2-7
SMILES: CC(C)C[C@H](NC(=O)[C@H](CCCNC(=N)N)NC(=O)[C@H](CCC(N)=O)NC(=O)[C@@H](NC(=O)[C@H](C)NC(=O)[C@@H]1CSSC[C@H](NC(=O)[C@H](CCCCN)NC(=O)CC[C@H](NC(=O)CCCCCCCCCCCCCCCCCCC(=O)O)C(=O)O)C(=O)N[C@@H](CC(N)=O)C(=O)N[C@@H]([C@@H](C)O)C(=O)N[C@@H](C)C(=O)N[C@@H]([C@@H](C)O)C(=O)N1)[C@@H](C)O)C(=O)N[C@@H](C)C(=O)N[C@@H](CCC(=O)O)C(=O)N[C@@H](Cc1ccccc1)C(=O)N[C@@H](CC(C)C)C(=O)N[C@@H](CCCNC(=N)N)C(=O)N[C@@H](Cc1c[nH]cn1)C(=O)N[C@@H](CO)C(=O)N[C@@H](CO)C(=O)N1CCC[C@H]1C(=O)N[C@@H](CC(N)=O)C(=O)N[C@@H](Cc1ccccc1)C(=O)NCC(=O)N[C@@H](C)C(=O)N1CCC[C@H]1C(=O)N[C@@H](CC(C)C)C(=O)N[C@@H](CO)C(=O)N[C@@H](CO)C(=O)N[C@H](C(=O)N[C@@H](CC(N)=O)C(=O)N[C@H](C(=O)NCC(=O)N[C@@H](CO)C(=O)N[C@@H](CC(N)=O)C(=O)N[C@H](C(=O)N[C@@H](Cc1ccc(O)cc1)C(N)=O)[C@@H](C)O)C(C)C)[C@@H](C)O
notes: also called compound 7

IC50 [2]: 6.17 nM
B9: N^ε1-[(4S)-4-carboxy-4-(19-carboxynonadecanoylamino)butanoyl]-[His14,Arg17,Pro21,Pro27,Pro31]-h-amylin (peptide)
peptide: K([γGlu-C20 diacid])CNTATCATQRLAHFLRHSSPNFGAIPSSTPVGSNTY-NH2
modifications: disulfide 2-7; N-terminus assumed
SMILES: CC[C@H](C)[C@H](NC(=O)[C@H](C)NC(=O)CNC(=O)[C@H](Cc1ccccc1)NC(=O)[C@H](CC(N)=O)NC(=O)[C@@H]1CCCN1C(=O)[C@H](CO)NC(=O)[C@H](CO)NC(=O)[C@H](Cc1c[nH]cn1)NC(=O)[C@H](CCCNC(=N)N)NC(=O)[C@H](CC(C)C)NC(=O)[C@H](Cc1ccccc1)NC(=O)[C@H](Cc1c[nH]cn1)NC(=O)[C@H](C)NC(=O)[C@H](CC(C)C)NC(=O)[C@H](CCCNC(=N)N)NC(=O)[C@H](CCC(N)=O)NC(=O)[C@@H](NC(=O)[C@H](C)NC(=O)[C@@H]1CSSC[C@H](NC(=O)[C@@H](N)CCCCNC(=O)CC[C@H](NC(=O)CCCCCCCCCCCCCCCCCCC(=O)O)C(=O)O)C(=O)N[C@@H](CC(N)=O)C(=O)N[C@@H]([C@@H](C)O)C(=O)N[C@@H](C)C(=O)N[C@@H]([C@@H](C)O)C(=O)N1)[C@@H](C)O)C(=O)N1CCC[C@H]1C(=O)N[C@@H](CO)C(=O)N[C@@H](CO)C(=O)N[C@H](C(=O)N1CCC[C@H]1C(=O)N[C@H](C(=O)NCC(=O)N[C@@H](CO)C(=O)N[C@@H](CC(N)=O)C(=O)N[C@H](C(=O)N[C@@H](Cc1ccc(O)cc1)C(N)=O)[C@@H](C)O)C(C)C)[C@@H](C)O
notes: Synthetic analogue; also called compound 62

IC50 [2]: 56.9 nM
B10: N^ε1-[(4S)-4-carboxy-4-[[(4S)-4-carboxy-4-(19-carboxynonadecanoylamino)butanoyl]amino]butanoyl]-[Asp14,Arg17,Pro21,Pro27,Arg35]-h-amylin (peptide)
peptide: K([γGlu-γGlu-C20 diacid])CNTATCATQRLADFLRHSSPNFGAIPSSTNVGSRTY-NH2
modifications: disulfide 2-7; N-terminus assumed
SMILES: CC[C@H](C)[C@H](NC(=O)[C@H](C)NC(=O)CNC(=O)[C@H](Cc1ccccc1)NC(=O)[C@H](CC(N)=O)NC(=O)[C@@H]1CCCN1C(=O)[C@H](CO)NC(=O)[C@H](CO)NC(=O)[C@H](Cc1c[nH]cn1)NC(=O)[C@H](CCCNC(=N)N)NC(=O)[C@H](CC(C)C)NC(=O)[C@H](Cc1ccccc1)NC(=O)[C@H](CC(=O)O)NC(=O)[C@H](C)NC(=O)[C@H](CC(C)C)NC(=O)[C@H](CCCNC(=N)N)NC(=O)[C@H](CCC(N)=O)NC(=O)[C@@H](NC(=O)[C@H](C)NC(=O)[C@@H]1CSSC[C@H](NC(=O)[C@@H](N)CCCCNC(=O)CC[C@H](NC(=O)CC[C@H](NC(=O)CCCCCCCCCCCCCCCCCCC(=O)O)C(=O)O)C(=O)O)C(=O)N[C@@H](CC(N)=O)C(=O)N[C@@H]([C@@H](C)O)C(=O)N[C@@H](C)C(=O)N[C@@H]([C@@H](C)O)C(=O)N1)[C@@H](C)O)C(=O)N1CCC[C@H]1C(=O)N[C@@H](CO)C(=O)N[C@@H](CO)C(=O)N[C@H](C(=O)N[C@@H](CC(N)=O)C(=O)N[C@H](C(=O)NCC(=O)N[C@@H](CO)C(=O)N[C@@H](CCCNC(=N)N)C(=O)N[C@H](C(=O)N[C@@H](Cc1ccc(O)cc1)C(N)=O)[C@@H](C)O)C(C)C)[C@@H](C)O
notes: Synthetic analogue of human amylin; also called compound 52
